# Laboratory results as given in patent publication US20050043234A1.
# Biological target: zFGF5 (human) (UniProt O76093)
# Assay: cell-based or functional assay
# Sequence of zFGF5 (human) (O76093 28-207): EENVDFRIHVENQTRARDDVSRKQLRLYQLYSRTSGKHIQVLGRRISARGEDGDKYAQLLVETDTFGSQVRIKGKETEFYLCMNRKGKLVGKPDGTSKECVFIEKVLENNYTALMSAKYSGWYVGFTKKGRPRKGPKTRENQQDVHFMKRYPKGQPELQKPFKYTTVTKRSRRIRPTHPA
substance,measurement,value
FGFR2α-IIIb/Fc (from UniProt P21802 22-378) (Fc fusion),"Cell Proliferation (percent of control), BAF3/FGFR3α-IIIc cells with zFGF5, soluble receptor at 0 fold-excess (percent of control)",100
same,"Cell Proliferation (percent of control), BAF3/FGFR3α-IIIc cells with zFGF5, soluble receptor at 62.5 fold-excess (percent of control)",101
same,"Cell Proliferation (percent of control), BAF3/FGFR3α-IIIc cells with zFGF5, soluble receptor at 125 fold-excess (percent of control)",90
same,"Cell Proliferation (percent of control), BAF3/FGFR3α-IIIc cells with zFGF5, soluble receptor at 250 fold-excess (percent of control)",91
same,"Cell Proliferation (percent of control), BAF3/FGFR3α-IIIc cells with zFGF5, soluble receptor at 500 fold-excess (percent of control)",101
same,"Cell Proliferation (percent of control), BAF3/FGFR3α-IIIc cells with zFGF5, soluble receptor at 1000 fold-excess (percent of control)",99
